Results on two proteins are retold here after patent publication US20030207791A1 (published 2003).

Series [1] deals with the molecule itself. Description: gel filtration.
Series [2] concerns the molecule itself. The series is described as follows: gel filtration and in vitro cross-linking of the purified domain.

B1: AML1-ETO (other, UniProt Q01196 1-177, looked up)
chain: MRIPVDASTSRRFTPPSTALSPGKMSEALPLGAPDAGAALAGKLRSGDRSMVEVLADHPGELVRTDSPNFLCSVLPTHWRCNKTLPIAFKVVALGDVPDGTLVTVMAGNDENYSAELRNATAAMKNQVARFNDLRFVGRSGRGKSFTLTITVFTNPPQVATYHRAIKITVDGPREPRDRTEKHSTMPDSPVDVKTQSRLTPPTMPPPPTTQGAPRTSSFTPTTLTNGTSHSPTALNGAPSPPNGFSNGPSSSSSSSLANQQLPPACGARQLSKLKRFLTTLQQFGNDISPEIGERVRTLVLGLVNSTLTIEEFHSKLQEATNFPLRPFVIPFLKANLPLLQRELLHCARLAKQNPAQYLAQHEQLLLDASTTSPVDSSELLLDVNENGKRRTPDRTKENGFDREPLHSEHPSKRPCTISPGQRYSPNNGLSYQPNGLPHPTPPPPQHYRLDDMAIAHHYRDSYRHPSHRDLRDRNRPMGLHGTRQEEMIDHRLTDREWAEEWKHLDHLLNCIMDMVEKTRRSLTVLRRCQEADREELNYWIRRYSDAEDLKKGGGSSSSHSRQQSPVNPDPVALDAHREFLHRPASGYVPEEIWKKAEEAVNEVKRQAMTELQKAVSEAERKAHDMITTERAKMERTVAEAKRQAAEDALAVINQQEDSSESCWNCGRKASETCSGCNTARYCGSFCQHKDWEKHHHICGQTLQAQQQGDTPAVSSSVTPNSGAGSPMDTPPAATPRSTTPGTPSTIETTPR
notes: The plasmid list names pcDNA3-myc-AML1-ETO; Also made in bacteria as an MBP fusion, MBP removed by factor Xa; also called myc-AML1-ETO
For B1, the binding result in series [1] is “binds”.

B2: isolated coiled coil domain of PML (other)
chain: SELKCDISAEIQQRQEELDAMTQALQALQEQDSAEGAVHAQMHAAVGQLGRARAETEELIRERVRQVVAHVRAQERELLEAVDARYQRDYEEMASRLGRLDAVLQRIRTGSALVQRMKCYASDQEVLDMHGFLRQALCRLR
notes: Expressed in BL21 as a GST fusion and freed by site-specific cleavage; also called CC; CC domain of PML
As to B2, the binding result in series [2] was “binds”.
